Test results: US11833164B2, “Methods of treating Fabry disease in patients having a mutation in the GLA gene” (Amicus Therapeutics, Inc., priority 2019, dated 2023)
Substitutions are numbered along the chain they refer to. In names and notes the source's numbering stands.

B1: D161N (protein)
chain: MQLRNPELHLGCALALRFLALVSWDIPGARALDNGLARTPTMGWLHWERFMCNLDCQEEPDSCISEKLFMEMAELMVSEGWKDAGYEYLCIDDCWMAPQRDSEGRLQADPQRFPHGIRQLANYVHSKGLKLGIYADVGNKTCAGFPGSFGYYDIDAQTFANWGVDLLKFDGCYCDSLENLADGYKHMSLALNRTGRSIVYSCEWPLYMWPFQKPNYTEIRQYCNHWRNFADIDDSWKSIKSILDWTSFNQERIVDVAGPGGWNDPDMLVIGNFGLSWNQQVTQMALWAIMAAPLFMSNDLRHISPQAKALLQDKDVIAINQDPLGKQGYQLRQGDNFEVWERPLSGLAWAVAMINRQEIGGPRSYTIAVASLGKGVACNPACFITQLLPVKRKLGFYEWTSRLRSHINPTGTVLLQLENTMQMSLKDLL
B2: Y173H (protein)
chain: B1 chain with N161D, Y173H
B3: V164A (protein)
chain: B1 chain with N161D, V164A
B4: D161V (protein)
chain: B1 chain with N161V
B5: Y173C (protein)
chain: B1 chain with N161D, Y173C
B6: V164L (protein)
chain: B1 chain with N161D, V164L
B7: V164I (protein)
chain: B1 chain with N161D, V164I
B8: L166Q (protein)
chain: B1 chain with N161D, L166Q
B9: F169V (protein)
chain: B1 chain with N161D, F169V
B10: W162S (protein)
chain: B1 chain with N161D, W162S
B11: Y173F (protein)
chain: B1 chain with N161D, Y173F
B12: L166M (protein)
chain: B1 chain with N161D, L166M
B13: F169L (protein)
chain: B1 chain with N161D, F169L
B14: D165A (protein)
chain: B1 chain with N161D, D165A
B15: F169C (protein)
chain: B1 chain with N161D, F169C
B16: G171A (protein)
chain: B1 chain with N161D, G171A
B17: D161Y (protein)
chain: B1 chain with N161Y
B18: G171V (protein)
chain: B1 chain with N161D, G171V
B19: D165E (protein)
chain: B1 chain with N161D, D165E
B20: L167I (protein)
chain: B1 chain with N161D, L167I
B21: F169Y (protein)
chain: B1 chain with N161D, F169Y

Tested on: mutant form of α-Gal A expressed in HEK-293 cells
Assay: HEK assay (GLP HEK / Migalastat Amenability Assay): α-Gal A activity in lysates of transiently transfected HEK-293 cells incubated with or without 10 μM migalastat
Type: cell-based, human
Settings: for Absolute increase (% WT): 10 μM migalastat versus baseline; for Relative increase: 10 μM migalastat α-Gal A activity relative to baseline; for 10 μM migalastat α-Gal A activity (% WT): 5 days; for 10 μM migalastat α-Gal A activity (% WT) / Baseline α-Gal A activity (% WT): percentage of baseline wild-type α-Gal A activity; for 10 μM migalastat α-Gal A activity (% WT) / Baseline α-Gal A activity (% WT) / Baseline α-Gal A activity / 10 μM migalastat α-Gal A activity: mean ± SEM; for Baseline α-Gal A activity (% WT): absence of migalastat; for Baseline α-Gal A activity / 10 μM migalastat α-Gal A activity: lysates of HEK-293 cells transfected with the mutant form; for Baseline α-Gal A activity: incubated 5 days in the absence of migalastat; for 10 μM migalastat α-Gal A activity: incubated 5 days with 10 μM migalastat
Summary of the method: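 Activity reported as 4-MU released (nmol/mg/hr), mean±SEM, from lysates of transiently transfected HEK-293 cells expressing mutant α-Gal A, cultured with or without 10 μM migalastat.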

Molecule | Absolute increase (% WT) | Relative increase | 10 μM migalastat α-Gal A activity (% WT) | Baseline α-Gal A activity (% WT) | Baseline α-Gal A activity [nmol/mg/h] | 10 μM migalastat α-Gal A activity [nmol/mg/h]
B1 | 14.1 | 1.2 | 68.7 ± 4.9 | 54.5 ± 4.3 | 19553 ± 2838 | 24298 ± 3201
B2 | 18.3 | 1.3 | 80.2 ± 4.6 | 61.9 ± 3.4 | 21234 ± 879 | 27455 ± 1147
B3 | 7.5 | 1.3 | 32 ± 2.2 | 24.5 ± 1.8 | 6491 ± 691 | 8468 ± 832
B4 | 16.0 | 1.4 | 59.7 ± 2.7 | 43.7 ± 1.7 | 13728 ± 1344 | 19117 ± 2241
B5 | 29.3 | 1.6 | 80.5 ± 3.3 | 51.1 ± 3.6 | 17669 ± 1240 | 27924 ± 1225
B6 | 35.0 | 1.7 | 86.2 ± 5.2 | 51.2 ± 3.8 | 22055 ± 1619 | 36486 ± 1952
B7 | 41.9 | 1.9 | 87.1 ± 8.2 | 45.1 ± 3.4 | 12164 ± 1271 | 23219 ± 2640
B8 | 29.2 | 2.6 | 47.6 ± 1.9 | 18.4 ± 1.2 | 5656 ± 325 | 14720 ± 616
B9 | 42.8 | 5.6 | 53 ± 2.1 | 10.2 ± 0.9 | 2870 ± 239 | 16145 ± 1680
B10 | 9.2 | 4.6 | 11.8 ± 0.8 | 2.6 ± 0.2 | 653 ± 38 | 3019 ± 210
B11 | 21.2 | 1.3 | 97.7 ± 4.7 | 76.5 ± 4.2 | 26479 ± 1523 | 33158 ± 657
B12 | 48.8 | 1.8 | 104 ± 7.3 | 55.2 ± 4.5 | 15603 ± 1630 | 27922 ± 1578
B13 | 34.5 | 1.7 | 82.3 ± 3.2 | 47.8 ± 2.9 | 15588 ± 1463 | 26527 ± 1806
B14 | 4.4 | 5.2 | 5.4 ± 0.3 | 1 ± 0.1 | 271 ± 30 | 1397 ± 86
B15 | 26.9 | 2.4 | 44.9 ± 2.3 | 18.1 ± 2 | 6861 ± 977 | 16396 ± 1516
B16 | 26.4 | 1.4 | 84 ± 5.7 | 57.6 ± 2.8 | 19081 ± 1801 | 27514 ± 2486
B17 | 32.1 | 1.9 | 63.1 ± 4.6 | 31 ± 2.5 | 11060 ± 1571 | 21231 ± 2136
B18 | 6.4 | 3.6 | 9.2 ± 0.9 | 2.8 ± 0.2 | 856 ± 62 | 3111 ± 411
B19 | 18.4 | 4.4 | 23.8 ± 1.6 | 5.4 ± 0.2 | 1442 ± 43 | 6279 ± 288
B20 | 26.1 | 1.6 | 72.9 ± 2.7 | 46.8 ± 2.2 | 14763 ± 942 | 22948 ± 1321
B21 | 30.2 | 1.6 | 75.5 ± 3.6 | 45.3 ± 2.8 | 14358 ± 1768 | 23459 ± 2391
